The values that follow come from patent US20220348609A1 (University of Washington, published 2022).

One may read the Kd as the constant that tells how readily two partners part at equilibrium. Read a low Kd as tighter binding.

B1: av6_3 A39K (designed binder)
chain: MAVVRFVFRGDLAELMLRAVKDHLKKEGPHWNITSTNNGKELVVRGIHESDAKRIAKWVEKRFPGVHTETQQD
notes: not shown: C-terminal His tag (pET29b, NdeI/XhoI)
B2: av6_3 E13TM15RA39KG64R (designed binder)
chain: MAVVRFVFRGDLATLRLRAVKDHLKKEGPHWNITSTNNGKELVVRGIHESDAKRIAKWVEKRFPRVHTETQQD
notes: as for B1
B3: av6_3 M15R (designed binder)
chain: MAVVRFVFRGDLAELRLRAVKDHLKKEGPHWNITSTNNGAELVVRGIHESDAKRIAKWVEKRFPGVHTETQQD
notes: as for B1
B4: av6_3 G64R (designed binder)
chain: MAVVRFVFRGDLAELMLRAVKDHLKKEGPHWNITSTNNGAELVVRGIHESDAKRIAKWVEKRFPRVHTETQQD
notes: as for B1
B5: av6_3 E13TM15RA39K (designed binder)
chain: MAVVRFVFRGDLATLRLRAVKDHLKKEGPHWNITSTNNGKELVVRGIHESDAKRIAKWVEKRFPGVHTETQQD
notes: as for B1
B6: av6_3 M15RG64R (designed binder)
chain: MAVVRFVFRGDLAELRLRAVKDHLKKEGPHWNITSTNNGAELVVRGIHESDAKRIAKWVEKRFPRVHTETQQD
notes: as for B1
B7: av6_3 E13TG64R (designed binder)
chain: MAVVRFVFRGDLATLMLRAVKDHLKKEGPHWNITSTNNGAELVVRGIHESDAKRIAKWVEKRFPRVHTETQQD
notes: as for B1
B8: av6_12 (designed binder)
single chain: MAVVRFVFRGDLAELMLRAVKDHLKKEGPHWNITSDTSKGAELVVRGIHESDAKRIAKWARLKFPGTDTRIEV
B9: av6_16 (designed binder)
single chain: MAVVRFVFRGDLAELMLRAVKDHLKKEGPHWNITSVESSQVELVVRGIHESDAKRIAKWARLKFPGTDTRIEV
B10: av6_1 (designed binder)
single chain: MAVVRFVFRGDLAELMLRAVKDHLKKEGPHWNITSTNNGAELVVRGIHESDAKRIARTVEKLTNGKSQSLVLT
B11: av6_5 (designed binder)
single chain: MAVVRFVFRGDLAELMLRAVKDHLKKEGPHWNITSDESGFELVVRGIHESDAKRIARTVEKLTNGKSQSLVLT
B12: av6_4 (designed binder)
single chain: MAVVRFVFRGDLAELMLRAVKDHLKKEGPHWNITSTNNGAELVVRGIHESDAKRIAKWARLKFPGTDTRIEVR
B13: av6_8 (designed binder)
single chain: MAVVRFVFRGDLAELMLRAVKDHLKKEGPHWNITSDESGFELVVRGIHESDAKRIAKWARLKFPGTDTRIEVR
B14: av6_13 (designed binder)
single chain: MAVVRFVFRGDLAELMLRAVKDHLKKEGPHWNITSVESSQVELVVRGIHESDAKRIARTVEKLTNGKSQSLVL
B15: av6_7 (designed binder)
chain: MAVVRFVFRGDLAELMLRAVKDHLKKEGPHWNITSDESGFELVVRGIHESDAKRIAKWVEKRFPGVHTETQQD
notes: Yeast display: Aga2 fusion with C-terminal myc tag; also purified from E. coli with C-terminal His tag
B16: evolved variant from the first round of design (02_E2V_T12A_E40V_S44I_T63I) (designed binder)
chain: AVVRFVFRGDLAELMLRAVKDHLKKEGPHWNITSRGNELVVRGIHESDAKRIQKEFPSVQSTIQA
notes: No substitutions were applied here; also called original crystallized variant
B17: av6_9 (designed binder)
chain: MAVVRFVFRGDLAELMLRAVKDHLKKEGPHWNITSDTSKGAELVVRGIHESDAKRIARTVEKLTNGKSQSLVL
notes: as for B15

T2 sequence (P06756 31-1048, chain 1 of 2): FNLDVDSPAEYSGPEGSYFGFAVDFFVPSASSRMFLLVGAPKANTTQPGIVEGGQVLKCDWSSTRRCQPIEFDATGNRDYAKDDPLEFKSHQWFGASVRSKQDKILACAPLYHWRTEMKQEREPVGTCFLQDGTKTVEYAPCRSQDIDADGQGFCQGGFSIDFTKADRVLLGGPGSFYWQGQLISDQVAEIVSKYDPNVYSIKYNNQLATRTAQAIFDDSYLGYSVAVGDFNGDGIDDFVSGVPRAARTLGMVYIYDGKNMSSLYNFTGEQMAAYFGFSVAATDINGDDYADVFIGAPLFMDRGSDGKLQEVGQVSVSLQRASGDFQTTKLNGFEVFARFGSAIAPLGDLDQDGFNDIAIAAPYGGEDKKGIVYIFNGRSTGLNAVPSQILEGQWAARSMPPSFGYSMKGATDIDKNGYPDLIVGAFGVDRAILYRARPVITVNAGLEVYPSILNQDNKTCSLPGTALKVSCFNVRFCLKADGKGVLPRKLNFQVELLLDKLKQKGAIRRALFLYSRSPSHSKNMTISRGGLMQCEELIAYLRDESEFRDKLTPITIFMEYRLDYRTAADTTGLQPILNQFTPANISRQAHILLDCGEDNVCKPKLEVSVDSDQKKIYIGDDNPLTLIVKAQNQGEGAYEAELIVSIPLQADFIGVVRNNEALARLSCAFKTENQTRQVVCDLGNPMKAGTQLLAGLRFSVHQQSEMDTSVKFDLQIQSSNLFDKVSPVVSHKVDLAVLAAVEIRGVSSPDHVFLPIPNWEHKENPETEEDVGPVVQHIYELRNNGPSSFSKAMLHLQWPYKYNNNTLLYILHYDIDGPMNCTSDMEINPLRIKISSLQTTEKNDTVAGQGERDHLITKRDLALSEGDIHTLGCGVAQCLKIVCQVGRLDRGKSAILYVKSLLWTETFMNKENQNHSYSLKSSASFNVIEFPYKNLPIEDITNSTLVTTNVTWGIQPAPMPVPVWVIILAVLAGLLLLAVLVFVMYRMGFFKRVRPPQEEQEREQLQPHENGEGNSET
T2 sequence (P18564 22-788, chain 2 of 2): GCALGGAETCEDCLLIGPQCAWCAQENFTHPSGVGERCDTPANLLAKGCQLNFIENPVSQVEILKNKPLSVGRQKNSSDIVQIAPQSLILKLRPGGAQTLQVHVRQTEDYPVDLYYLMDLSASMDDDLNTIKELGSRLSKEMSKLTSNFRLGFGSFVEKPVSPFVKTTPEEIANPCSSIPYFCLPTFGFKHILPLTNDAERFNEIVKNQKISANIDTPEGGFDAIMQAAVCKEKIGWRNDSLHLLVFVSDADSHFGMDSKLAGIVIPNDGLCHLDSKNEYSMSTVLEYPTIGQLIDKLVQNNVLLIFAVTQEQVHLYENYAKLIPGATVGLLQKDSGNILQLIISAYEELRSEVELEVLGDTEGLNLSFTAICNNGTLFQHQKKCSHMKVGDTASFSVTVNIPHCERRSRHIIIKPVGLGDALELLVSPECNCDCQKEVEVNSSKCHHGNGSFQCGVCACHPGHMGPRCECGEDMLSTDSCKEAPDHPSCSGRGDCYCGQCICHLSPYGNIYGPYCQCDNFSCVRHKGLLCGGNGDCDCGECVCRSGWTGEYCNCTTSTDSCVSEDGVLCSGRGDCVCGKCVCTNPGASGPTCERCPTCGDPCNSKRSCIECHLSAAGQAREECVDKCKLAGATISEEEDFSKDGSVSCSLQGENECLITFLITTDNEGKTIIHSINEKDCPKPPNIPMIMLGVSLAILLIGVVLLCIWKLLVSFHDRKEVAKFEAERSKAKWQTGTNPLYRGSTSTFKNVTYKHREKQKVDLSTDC

The target in one experiment is T1, human αvβ6 integrin, soluble protein (biotinylated for yeast display; in solution for BLI) (human, UniProt P06756 31-992; P18564 22-707, limits assumed, biotinylated in the yeast display experiments (site not stated)).
T1 construct: also called avb6; alpha(v) beta (6) integrin
T1 sequence (P06756 31-992 limits assumed, chain 1 of 2): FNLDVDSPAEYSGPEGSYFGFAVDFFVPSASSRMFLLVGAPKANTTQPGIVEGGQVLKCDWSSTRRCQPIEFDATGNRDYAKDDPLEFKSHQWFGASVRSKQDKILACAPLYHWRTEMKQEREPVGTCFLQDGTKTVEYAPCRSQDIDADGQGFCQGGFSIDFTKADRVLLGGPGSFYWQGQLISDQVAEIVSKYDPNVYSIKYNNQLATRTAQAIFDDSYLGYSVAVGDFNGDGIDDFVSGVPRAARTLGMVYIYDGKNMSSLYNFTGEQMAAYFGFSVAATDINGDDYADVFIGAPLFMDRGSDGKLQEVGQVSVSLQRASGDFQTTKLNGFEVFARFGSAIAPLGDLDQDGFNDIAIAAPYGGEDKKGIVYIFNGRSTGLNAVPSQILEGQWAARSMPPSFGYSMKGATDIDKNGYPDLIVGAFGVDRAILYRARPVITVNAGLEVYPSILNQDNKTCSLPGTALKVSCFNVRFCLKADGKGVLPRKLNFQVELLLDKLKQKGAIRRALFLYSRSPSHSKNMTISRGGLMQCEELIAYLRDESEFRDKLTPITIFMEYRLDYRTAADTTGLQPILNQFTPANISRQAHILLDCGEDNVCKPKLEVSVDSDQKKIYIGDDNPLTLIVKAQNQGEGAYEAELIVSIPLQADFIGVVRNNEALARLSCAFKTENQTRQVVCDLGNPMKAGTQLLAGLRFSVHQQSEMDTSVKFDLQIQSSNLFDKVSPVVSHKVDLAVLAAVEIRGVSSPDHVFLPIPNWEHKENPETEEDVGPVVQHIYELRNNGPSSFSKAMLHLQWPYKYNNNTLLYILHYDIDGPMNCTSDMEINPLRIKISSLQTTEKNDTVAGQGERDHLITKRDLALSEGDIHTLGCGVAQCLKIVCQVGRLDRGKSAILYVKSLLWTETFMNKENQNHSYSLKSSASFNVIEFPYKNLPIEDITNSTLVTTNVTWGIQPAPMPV
T1 sequence (P18564 22-707 limits assumed, chain 2 of 2): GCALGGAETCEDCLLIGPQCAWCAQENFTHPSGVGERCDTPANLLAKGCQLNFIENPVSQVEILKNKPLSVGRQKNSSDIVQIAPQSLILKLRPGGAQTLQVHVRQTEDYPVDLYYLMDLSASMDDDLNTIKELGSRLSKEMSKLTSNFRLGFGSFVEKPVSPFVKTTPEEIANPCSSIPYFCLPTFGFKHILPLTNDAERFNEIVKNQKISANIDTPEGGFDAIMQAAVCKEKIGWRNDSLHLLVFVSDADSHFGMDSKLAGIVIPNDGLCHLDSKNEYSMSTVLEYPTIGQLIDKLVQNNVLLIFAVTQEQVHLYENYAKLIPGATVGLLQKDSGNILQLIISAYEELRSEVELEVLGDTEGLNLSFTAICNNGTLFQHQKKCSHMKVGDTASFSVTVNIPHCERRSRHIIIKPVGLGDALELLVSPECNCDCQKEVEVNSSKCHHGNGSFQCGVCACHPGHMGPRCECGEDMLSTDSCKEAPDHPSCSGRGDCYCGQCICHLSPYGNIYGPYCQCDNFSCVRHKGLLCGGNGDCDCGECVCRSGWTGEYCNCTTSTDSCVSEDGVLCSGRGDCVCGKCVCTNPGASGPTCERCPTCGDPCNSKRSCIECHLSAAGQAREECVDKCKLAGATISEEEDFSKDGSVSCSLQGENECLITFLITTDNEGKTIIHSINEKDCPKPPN
Put plainly: BLI (Octet RED96), His-tagged binder on Ni-NTA sensor, αvβ6 in solution. The procedure:
Data was collected on an Octet™ RED96 (Forte Bio) and processed using the instrument's software. His Tagged protein binders were immobilized on Ni-NTA octet sensors. The tips are then dipped into wells containing different concentrations of αᵥβ₆. Association and dissociation steps were recorded for 900 s and 1200 s respectively. An empty sensor with no loaded binding protein was included to discard any non-specific binding of αᵥβ₆ to the octet tip.
In the case of B1, binding was characterised by a dissociation constant (Kd) of 411 pM.
Same read-out and setting: under B2 stands 420 pM; under B3, 380 pM; under B4, 470 pM.
Turning to B5, the affinity, expressed as Kd, was 397 pM.
On the same count and under the same terms, under B6 stands 404 pM.
Still for that read-out and setting: under B7 stands 398 pM.

For a further experiment, the target named is T1, human αvβ6 integrin, soluble protein …. The experiment in a line: yeast surface display, flow cytometry, 50 pM biotinylated αvβ6 stained with SAPE. An excerpt: Yeast Display: Standard yeast surface display techniques were used to screen designs for binding and directed evolution. Genes encoding the designs were cloned into petcon2 in frame with N-term aga2 and C-term myc tag. Surface expression of Myc was detected using Anti-C Myc antibody and binding was detected by using biotinylated human αᵥβ₆ and stained with phycoerythrin conjugated streptavidin for FACS. Two different buffers were used for the binding and washing steps for yeast display: Binding Buffer 20 mM TRIS, 150 mM NaCl, pH=8.0, 1% BSA, 1 mM Ca(II) and 1 mM Mg(II), Wash Buffer: 20 mM TRIS, 150 mM NaCl, pH=8.0, 0.5% BSA, 1 mM Ca(II) and 1 mM Mg(II).
Regarding B8, the binding result is reported as “binds”.
On the same count and under the same terms, under B9 stands “binds”; under B10, “binds”.
As to B11, the binding result is recorded as “binds”.
Same read-out and setting: under B12 stands “binds”; under B13, “binds”.
On the same count and under the same terms, the entry for B14 is “binds”.

A further experiment addresses T2, human αvβ6 integrin on cells (A431 carcinoma cells; K562 cells stably transfected with αvβ6) (human, UniProt P06756 31-1048; P18564 22-788).
T2 construct: whole, on cells; Endogenous on A431 cells, transfected on K562 cells; also called αvβ6(+) cells; K562 avb6 transfected clone A4
The experiment in a line: row 'X(selectivity)' of the drawn table: αvβ6 over αvβ8, cell surface competition assay.
On to B15, for which the “X(selectivity)” value turned out to be 1.5 X.
The same measure, in the same setting: the figure for B16 is 3 X.
Same read-out and setting: under B17 stands 3 X.
